Publication PMC7121760

Key:
[1] = target: α1Cx43 (connexin 43), full-length, membrane-integrated (UniProt P08050); assay: sucrose gradient velocity sedimentation
[2] = target: β1Cx32 (connexin 32), full-length, membrane-integrated (UniProt P08033); assay: sucrose gradient velocity sedimentation

stoichiometry N [1]	stoichiometry N [2]	Substance
6		α1Cx43 (connexin 43), full-length, membrane-integrated (from UniProt P08050 1-382) (natural protein)
	6	β1Cx32 (connexin 32), full-length, membrane-integrated (from UniProt P08033 1-283) (natural protein)
